This series addresses T1, Drosha-Quad dsRBD (human, UniProt Q9NRR4 1259-1337, K1262I;I1317K;Q1318K;E1321K).
T1 sequence: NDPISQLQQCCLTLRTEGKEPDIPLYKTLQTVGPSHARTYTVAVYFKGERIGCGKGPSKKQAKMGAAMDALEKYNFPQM
Put plainly: EMSA; 50 mM sodium cacodylate pH 6.0, 50 mM KCl, 5% glycerol, 1 mM DTT, 0.1 mg/mL BSA, 0.1 mg/mL herring sperm DNA, 30 min at room temperature; 10% native gel at 4 C; Hill fit. The following applies: protein: recombinant, tags: pET-47b(+) vector. Background: In EMSA bound probe runs differently from free probe, usually more slowly.

Where [1] appears, read: label: 5'-32P top strand, blunt.

B1: pri-mir-16-1 (structured_RNA)
RNA: GGGUGAUAGCAAUGUCAGCAGUGCCUUAGCAGCACGUAAAUAUUGGCGUUAAGAUUCUAAAAUUAUCUCCAGUAUUAACUGUGCUGCUGAAGUAAGGUUGACCAUACUCUAC
B1: the Kd (label: 32P (5' end implied), hairpin, stem region contains 39 bp) was 2.8 ± 0.1 µM.

B2: ds44 (dsRNA)
RNA 1: GGUCAGCAGUGCCUUAGCAGCACGUAAAUAUUGGCGUUAAGACC
RNA 2: GGUCUUAACGCCAAUAUUUACGUGCUGCUAAGGCACUGCUGACC
Turning to B2, the Kd under setting [1] came to 6.5 ± 0.6 µM.

B3: ds22 (dsRNA)
RNA 1: GUCAGCAGUGCCUUAGCAGCAC
RNA 2: GUGCUGCUAAGGCACUGCUGAC
For the molecule B3, the Kd under setting [1] is 13.4 ± 0.4 µM.

B4: ds33 (dsRNA)
RNA 1: GGUCAGCAGUGCCUUAGCAGCACGUAAAUAUGG
RNA 2: CCAUAUUUACGUGCUGCUAAGGCACUGCUGACC
With B4, under setting [1], the dissociation constant Kd came out at 7.8 ± 0.2 µM.

One may read the Kd as the constant that tells how readily two partners part at equilibrium.

(Values after PMC5549741, “Engineering double-stranded RNA binding activity into the Drosha double-stranded RNA binding domain results in a loss of microRNA processing function”.)
